# Assay: yeast display, Sf9 membrane polyspecificity reagent, FACS + sequencing; frameworks hold sequencing errors
# Outline: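 Genes from sorted yeast were amplified by colony PCR, read by MiSeq 2 × 250 sequencing and filtered on CDR length. These cells carried a synthetic nanobody library in Saccharomyces cerevisiae BJ5465 and were sorted by FACS into low and high (top ~1%) gates on anti-HA and streptavidin fluorescence. Polyreactivity is labelled according to the gate of origin.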
row,Sequence,polyreactivity (PSR sort gate)
1,QVQVVESGGGLVQAGGSLRLSCAASGSIFHAYTMGWSRQAPGKERELVAAISRGDRTYYADSVKGRFTISRDNAKNTVSLQMNSLKPEDTAVYYCNRDRYRYDSWGQGTQLTVSS,high polyreactivity
2,QVQVVESGGGLVQAGGSLRLSCAASGSIFNQYAMGWHRQAPGKERELVAAISSDGGRTYYADSVKGRFTISRDNAKNTVYLQMNSLKPEDTAVYYCNADFPAYGLQGDDYWGQGTQVTVSS,low polyreactivity
3,QVQVVESGGGLVQAGGSLRLSCAASGSIIYYYAMGWYRQAPGKERELVARISWNGGSTYYADSVKGRFTISRDNAKNTVYLQMNSLKPEDNAVYYCAARPWHHYYWGQGTQVTVSS,high polyreactivity
4,QVQVVESGGGLVQAGGSLRLSCAASGSTFSIYAMGCYRQAPGKERELVAAISSSGGSTYYADSVKGRFTISRDNGKNTVYLQMNSLKPEDTAVYYCNKRKYHVRYDYWGQGTQVTVSS,low polyreactivity
5,QVQVVESGGGLVQAGGSLRLSCAASGSTFVLNAMGWYRQAPGKERELVAAITYGGSTYYADSVKGRFTISRDNAKNTVYLQMNSLKPEDTAVYYCAVTYNGDSSWPGDYWGQGTQVTVSS,low polyreactivity
6,QVQVVESGGGLVQAGGSLRLSCAASGSTFWWYAMGWYRQAPGKERELVAAITSGGSTNYADSVKGRFTISRDNAKNTVYLQMNSLKPEVTAFYYCAKVPRPLVYYIRLGYWGQGTQVTVSS,high polyreactivity
7,QVQVVESGGGLVQAGGSLRLSCAASGWYNAMGWYRQAPGKERELVAAISWDGDSTYYADSVKGRFTISRENAKNTVYLQMNSLKPEDTAVYYCAATQSTGRGRYYYWGKGTQVTVSS,high polyreactivity
8,QVQVVESGGGLVQAGGSLRLSCASSGRTFGIYAMGWYRPAPGKESEWVASISWSGGRTYYADSVKGRFTISRDNAKNTVYLVMISLKPEDTAVYFCAARWYYVTPLRRYGYWGQGTQVTVSS,high polyreactivity
9,QVQVVESGGGLVQAGGSLRVICAASGSTFYRNAMGWYRQAPGKEWELVAAITRSASSTYYADSVKGRFTISRDNAKNNVDLQLNSLKPEDTAVYYCAAKRRVSHLDYWGQGTQVNVSS,high polyreactivity
10,QVQVVESGGGLVQPGCSLRLSCAASGNIFVYNDMGWYRQAPGKERELVAAIDSGGSTYYADSVKGRFTISRDNAKNNVYLKMNSLKQEDTAVYYCAADYYCTYRTIYYYWGQGTQVTVSS,low polyreactivity
11,QVQVVESGVGLVQSGGSLRLSYAASGSIFIPYPMGWYRQAPGKERELVAAISSSGSTYYADSVKGRFTISRDNAKNTFYLQMNSLKPEDTAVYYCAAERHYSYSSYDDWGQGTQVTVSS,low polyreactivity
12,QVRLVESGGGLVQAGGSLRLRCAASGSTFYTYAMGRYRQAPGKERELVAAITFIDGSTYYADSVKGRFTISRDNANNTVYLQMNSLKPEDTAVYYCAAASRGWGYPLYYSTDEYWGHGTQVTVSS,low polyreactivity
13,QVRLVESGGGLVQAGGSLRLSCAASGRIFASYAMGWNRQAPGKETELVAAISKSGGRTYYADSVKGGFTISRDNAKNTVYLQMNSLKPEDTAVYYCAAYFWTRSGTPNYDYWGQGTQVTVSS,high polyreactivity
14,QVRLVESGGGLVQAGGSLRLSCAASGSIFAPYAMGWYRQAPGKERELVATIRTTGDSTYYADSVKGRFTISRDNAKNTVYLQMNSLKPEDTAVYYCAKSEPLVVGVSPWYQVDYCGQGTQVTVSS,low polyreactivity
15,QVRLVESGGGLVQAGGSLRLSCAASGSILDINAMGWYRQAPGKERELVASISWTGGHTYYADSVKGRFTISRDNAKNTVYLQMNSLKPEDTAVYDCAATHQETVYYFLSIFDYWGQGTQVTVSS,low polyreactivity
16,QVRLVESGGGLVQAGGSLRLSCAASGSILYRYTMGWYRQAPGKETELVAAITWSDGSTYYSDSVKGRFTISRDNAKNTVYLQKNSLKPEDTAVYDCAADLWLDVDHEWSGGDYWGQGTQVTVSS,low polyreactivity
17,QVRLVETGGGLVQAGGSLRLSCAASGSIFLIYDMGWYRQAPGKEMELVAAISNSVGSTYADSVKGRFTMSRDNAKNTVYLQMNSLKPEDTAVYYCNADYGPIDGRGGYWGQGTQVTVSS,low polyreactivity
18,QVRRVESGGGLVQAGGSLRLSCAASGSTFPWYAMGWYRQAPGTERELVASITSGTTTNYADSVKGRFTISRDNAKNTVYLEMNSLKPEDTAVYYCAASWVYPYDYWGQGTQVTVSS,low polyreactivity
19,QYQLVESVGGLDQAGGTLRLSCAASARIFSYYAMGWYRQAPGKERELVATISYSGGSTYYADSVKGRFTISRDKAKNTVYLQMNSLKPEDSAVYYCAATRYPYFSFVRFPSRRFNYWGQGTQVTVSS,high polyreactivity
20,RLVQAGGSLRLSCAASGRIFGTYAMGWYRQAPGKERELVAAITQSGGRTYYADSVKGRFTISRDNAKNSVYLQMNSLKPEDTAVYYCNKVTYRGIGLGYDYWGQGTQVTVSS,high polyreactivity
21,RVQLGESGGGLVQAGGSLRLSCAASGRTFVRYAMGWYRQAPGKERELVAAISYRGASTFYADSVKGRFTISRDNAKNTVYLQMNSLNPEDTAVYSCATDPRIRYQGNPYDYWGQGTQVTVSS,high polyreactivity
22,RVQLVESGGGLVQAGGRLRLSCAASRFTFIVNPMGWYRQAPGKERELVAAISWNGGSTYYADSVKGRFTISRDNAKNTVYLQMNSLKPEDTAVYYCAVLYRSEYDWGQGTQVTVSS,low polyreactivity
23,RVQLVESGGGLVQAGGSLRLSCAASGGTFPVYAMGWYRQAPGKEWELVAAISYSGVTTYYADSVKGRFTISRDNAKNTVYLQMNSLKPEDTAVYYCNADWRRWYIFSYDYWGQGTQVTVSS,low polyreactivity
24,RVQLVESGGGLVQAGGSLRLSCAASGITFGRNAMGWYRQAPGKERELVAAISRGGSTNYADSVKGRFTISRDNAKNTVYLQMNSLKPEDTAVYYCNARSFGPTESRYDYWGQGTQVTVSS,high polyreactivity
25,RVQLVESGGGLVQAGGSLRLSCAASGSTISRYAMGWYRQAPGKERELVASISRSGTSTYYADSVKGRFTISRDNAKNTVYLQMNSLKPEDTAVYYCNKRWATSIQYRYNYWGQGTQVTVSS,high polyreactivity
26,TYRGTTTYYADSVKGRFPIARDYAKNTVYLQMHSLKPEETAVYNWTRYYPSEYDYWGQGTHVTVSS,high polyreactivity
